B1: Hammerhead Ribozyme (parent)
chain: ACCGGAUGUGCUUUCCGGUCUGAUGAGUCCGUGAGGACGAAACAG

Variants of: B1
Experiment: self-cleavage, relative activity (ratio to wild type); higher = more cleavage; co-transcriptional
In the case of ACCGGAUGUGCUUUCCGGUCUGAUGAGUCCGAGAGAACGAAACAG [U32A G36A], the self-cleavage is reported as 0.721.
In the case of ACCGGAUGUGCUUUCCCGUCUGAUGAGUCCGUGAGGACGAAAAAG [G17C C43A], the self-cleavage is reported as 0.319.
CCCGGAUGUGCUUUCCGGUCUCAUGAGUCCGUGAGGACGAAACAG [A1C G22C] gave a self-cleavage of 0.352.
AACGGAUGUGAUUUCCGGUCUGAUGAGUCCGUGAGGACGAAACAG [C2A C11A] showed a self-cleavage of 0.958.
ACCGGAUGUGCUUUUCUGUCUGAUGAGUCCGUGAGGACGAAACAG [C15U G17U] showed a self-cleavage of 0.476.
ACCGGAUGUGCUUUCCGGUCUGCUGAGUCCGUGAGAACGAAACAG [A23C G36A] gave a self-cleavage of 0.412.
Variant ACCGGUUGUGCUUUCCGGUCUGCUGAGUCCGUGAGGACGAAACAG [A6U A23C] has a self-cleavage of 0.368.
ACCGGAUGUGCUUUCCAGUCUGAUGAGUCCGUGAGGGCGAAACAG [G17A A37G] gave a self-cleavage of 0.604.
Work on ACCGGAUGUGCUUACCGGCCUGAUGAGUCCGUGAGGACGAAACAG [U14A U19C] yielded a self-cleavage of 0.474.
In the case of ACCGGCUGUGCUUUCCGGUCUGCUGAGUCCGUGAGGACGAAACAG [A6C A23C], the self-cleavage is reported as 0.333.
For ACCGGAUGUGAUUGCCGGUCUGAUGAGUCCGUGAGGACGAAACAG [C11A U14G], the self-cleavage was 1.27.
Work on ACCGGAUGUGCUUACCGGUCUGAUGAGUCCGUGAGGAGGAAACAG [U14A C38G] yielded a self-cleavage of 0.574.
With ACCGGAUGUGCUUUAUGGUCUGAUGAGUCCGUGAGGACGAAACAG [C15A C16U] the self-cleavage was 0.647.
With ACCGGAUGUACUUUCCGGUCUGAUGAGUCCGUGAGGACGACACAG [G10A A41C] the self-cleavage was 0.306.
ACCGGAUGUGCUUUCCGGUCUGAGGAGUCCGUGAGGACGAAACAG [U24G] gave a self-cleavage of 1.03.
ACCCGAUGUGCUUUCAGGUCUGAUGAGUCCGUGAGGACGAAACAG [G4C C16A] gave a self-cleavage of 1.65.
In the case of ACCGGAUGUGCUUUCCGGUCUGAUGUGUCGGUGAGGACGAAACAG [A26U C30G], the self-cleavage is reported as 0.423.
UCCGGAAGUGCUUUCCGGUCUGAUGAGUCCGUGAGGACGAAACAG [A1U U7A] showed a self-cleavage of 0.588.
ACCGGAUGUGCUUUCCGGUCUGAUGAGUGCGUGAGGGCGAAACAG [C29G A37G] gave a self-cleavage of 0.414.
ACCGGAUGUGCUUUCCCGCCUGAUGAGUCCGUGAGGACGAAACAG [G17C U19C] showed a self-cleavage of 0.332.
Variant ACCGGAUGGGCUUUCCGGUCUGAUGAGUCCGUGAGGACUAAACAG [U9G G39U] has a self-cleavage of 0.319.
Variant ACCGGAUGUGCUUACCGGUCUGAUGAGUCCGUGAGGACGAAACAC [U14A G45C] has a self-cleavage of 0.636.
Variant ACUGGAUGUGCUUUCCGGUCUGAUGAGUCCGUGCGGACGAAACAG [C3U A34C] has a self-cleavage of 0.851.
ACCGGAUGUGCCUUCCGGUCUGGUGAGUCCGUGAGGACGAAACAG [U12C A23G] gave a self-cleavage of 0.37.
Variant ACCGGAUGUGCUUUCCUGUCUGAUGAGUGCGUGAGGACGAAACAG [G17U C29G] has a self-cleavage of 0.591.
Variant ACCGGAUGUGCUUUCCGUCCUGAUGAGUCCGUGAGGACGAAACAG [G18U U19C] has a self-cleavage of 0.487.
Variant ACCGGAUGUGCUUUCCAGUCUGAUGAGUCCGUGAGGACGAAACGG [G17A A44G] has a self-cleavage of 0.742.
In the case of ACCGGAUGUGCUUUCCGGUCUGAUAAGUUCGUGAGGACGAAACAG [G25A C29U], the self-cleavage is reported as 0.3.
ACCGGAUGUGGUUUCCGGUCUGAUGAGUCCUUGAGGACGAAACAG [C11G G31U] gave a self-cleavage of 1.34.
ACCGGAUGUGCUUUCCGGUCAGAUGAGUCCGUGAGGGCGAAACAG [U21A A37G] showed a self-cleavage of 0.365.
Work on ACCGGAUGUGCUUUCCGGUCUGAUGGGUCCGGGAGGACGAAACAG [A26G U32G] yielded a self-cleavage of 0.412.
Variant AACGGAUGUGCUUUCCGGUCUGAUGAGUCUGUGAGGACGAAACAG [C2A C30U] has a self-cleavage of 0.847.
Work on ACCGGAUGUGCUUUCGGGUCUGAUGAGUCCGUGAGGGCGAAACAG [C16G A37G] yielded a self-cleavage of 0.533.
Variant ACCGCAUGUGCUUUCCGGUCUGAUGAGUCCGUGAGGACGUAACAG [G5C A40U] has a self-cleavage of 0.23.
For ACCGGAUGUGCUUCCCGGCCUGAUGAGUCCGUGAGGACGAAACAG [U14C U19C], the self-cleavage was 0.398.
Variant ACCGGAUGUGCUUUCCGGUCUGAUGAGUCCGUGCGGAGGAAACAG [A34C C38G] has a self-cleavage of 0.436.
With ACCGGAUGUGCUGUCCGGUCUGAUGAGACCGUGAGGACGAAACAG [U13G U28A] the self-cleavage was 0.673.
AACGGAUGUGCUUUCCGGUCUGAUGAGUCCGUGAGGAAGAAACAG [C2A C38A] gave a self-cleavage of 0.381.
Variant ACCGGAUGUGCUUUCCGGUCUGAUGAGUCCGUGAGGACGUACCAG [A40U A42C] has a self-cleavage of 0.369.
ACCGGAUGUGCUUUCCGGUCAGAUGAGUCCGUGAGGACGACACAG [U21A A41C] showed a self-cleavage of 0.437.
With ACCAGAUGUGCUUUCCGGGCUGAUGAGUCCGUGAGGACGAAACAG [G4A U19G] the self-cleavage was 0.238.
With ACCGGAUGUGCUUUCCGGUCUGAUGAGUCCGUGAGGACGUGACAG [A40U A41G] the self-cleavage was 0.27.
ACCGGAUGUGCUUUCCGGUCUGAUGAGUCCGUGAGGACGCAUCAG [A40C A42U] gave a self-cleavage of 0.427.
ACCGGACGUGCUUUCCGGUCUGAUGAGUCCGUGAGGAAGAAACAG [U7C C38A] showed a self-cleavage of 0.702.
ACCGGAUGUGCUUUCCGGUCUGAUGAGUCCGUCAGGCCGAAACAG [G33C A37C] showed a self-cleavage of 0.745.
For ACCGGAUGUGCUUUCCGGUCUGAUCAGUCCGUGAGGACGAAACAG [G25C], the self-cleavage was 0.324.
Variant ACCGGAUGUGCUUUCCGUUCUGAUGAGUCCGUGAGGACGAGACAG [G18U A41G] has a self-cleavage of 0.375.
In the case of ACCGGAUGCGCUUUCCGGUCUGAUGAAUCCGUGAGGACGAAACAG [U9C G27A], the self-cleavage is reported as 0.973.
ACCGGAUGUGCUUUCCGGUCUGAUGAGUCCUUGAGGACAAAACAG [G31U G39A] gave a self-cleavage of 0.32.
In the case of ACCGGAUGUGCCUUCCGGUCUGAUGAGUCCGUGAGGACGUAACAG [U12C A40U], the self-cleavage is reported as 0.379.
For ACCGGAUGUGCUGUCCGUUCUGAUGAGUCCGUGAGGACGAAACAG [U13G G18U], the self-cleavage was 0.701.
ACCGGACGUGCUUUCCGGUUUGAUGAGUCCGUGAGGACGAAACAG [U7C C20U] gave a self-cleavage of 0.492.
Work on ACCGGAUGUGCCUUCCGGUCUGAUGAGUCUGUGAGGACGAAACAG [U12C C30U] yielded a self-cleavage of 0.683.
ACCGGAUGGGCUUUCCGGUAUGAUGAGUCCGUGAGGACGAAACAG [U9G C20A] showed a self-cleavage of 0.331.
ACCGGAUGUGCUUUCCGGUCUGAUGAGUCUGUGAGGACGAAACGG [C30U A44G] showed a self-cleavage of 1.36.
CCCGGAUGGGCUUUCCGGUCUGAUGAGUCCGUGAGGACGAAACAG [A1C U9G] gave a self-cleavage of 0.346.
For ACCGGAUGUGCUUCCCCGUCUGAUGAGUCCGUGAGGACGAAACAG [U14C G17C], the self-cleavage was 0.342.

From the RNAGym collection of RNA variant scans (doi:10.7554/elife.80360)
